Reference: US10941182 (Amgen, dated 2021)
Starred links: 1 amine or outer side, 2 acyl side, 3 side chain; linkers in the order of their positions; H or OH if unused. Non-standard residues stand in square brackets, D forms with d. Primed or numbered codes have the meaning given here. *: point of attachment. AC4Abu = α-carboxy-4-aminobutyric acid, O=C(C(CCN[*:1])C(=O)[*:3])[*:2]; dBip = N[C@H](Cc1ccc(-c2ccccc2)cc1)C(=O)O; Oic = O=C(O)[C@@H]1C[C@@H]2CCCC[C@@H]2N1; Phe(4-Cl) = N[C@@H](Cc1ccc(Cl)cc1)C(=O)O; Phe(4-I) = N[C@@H](Cc1ccc(I)cc1)C(=O)O; γGlu = O=C(O)[C@H](CCC(=O)[*:2])N[*:1]; d(β3hF) = N[C@@H](CC(=O)O)Cc1ccccc1; NMeR = CN[C@@H](CCCNC(=N)N)C(=O)O; Palmitoyl = CCCCCCCCCCCCCCCC(=O)*; Tridecanoyl = CCCCCCCCCCCCC(=O)*; hArg = N=C(N)NCCCC[C@H](N)C(=O)O; β3hF = N[C@H](CC(=O)O)Cc1ccccc1; Cha = N[C@@H](CC1CCCCC1)C(=O)O; NMeL = CN[C@@H](CC(C)C)C(=O)O; αMeP = C[C@@]1(C(=O)O)CCCN1; AC4Abu″ = not defined here; β3hP = O=C(O)C[C@@H]1CCCN1; αMeS = C[C@](N)(CO)C(=O)O; Nle = CCCC[C@H](N)C(=O)O; AMEF = not defined here; Deg = CCC(N)(CC)C(=O)O; AEEA = NCCOCCOCC(=O)O; Aib = CC(C)(N)C(=O)O

B1: Apelin polypeptide SEQ ID NO: 545 (peptide)
peptide: Tridecanoyl-[γGlu][AEEA][AEEA][dQ]RP[NMeR][Cha]SHKG[αMeP][Nle][β3hP][Phe(4-Cl)]-OH
SMILES: CCCCCCCCCCCCC(=O)N[C@@H](CCC(=O)NCCOCCOCC(=O)NCCOCCOCC(=O)N[C@H](CCC(N)=O)C(=O)N[C@@H](CCCNC(=N)N)C(=O)N1CCC[C@H]1C(=O)N(C)[C@@H](CCCNC(=N)N)C(=O)N[C@@H](CC1CCCCC1)C(=O)N[C@@H](CO)C(=O)N[C@@H](Cc1c[nH]cn1)C(=O)N[C@@H](CCCCN)C(=O)NCC(=O)N1CCC[C@@]1(C)C(=O)N[C@@H](CCCC)C(=O)N1CCC[C@H]1CC(=O)N[C@@H](Cc1ccc(Cl)cc1)C(=O)O)C(=O)O
B2: Apelin polypeptide SEQ ID NO: 415 (peptide)
peptide: Tridecanoyl-[AC4Abu][AEEA][AEEA]QRP[NMeR][Cha]SHKG[Deg][Nle]P[Phe(4-Cl)]-OH
SMILES: CCCCCCCCCCCCC(=O)NCCC(C(=O)O)C(=O)NCCOCCOCC(=O)NCCOCCOCC(=O)N[C@@H](CCC(N)=O)C(=O)N[C@@H](CCCNC(=N)N)C(=O)N1CCC[C@H]1C(=O)N(C)[C@@H](CCCNC(=N)N)C(=O)N[C@@H](CC1CCCCC1)C(=O)N[C@@H](CO)C(=O)N[C@@H](Cc1c[nH]cn1)C(=O)N[C@@H](CCCCN)C(=O)NCC(=O)NC(CC)(CC)C(=O)N[C@@H](CCCC)C(=O)N1CCC[C@H]1C(=O)N[C@@H](Cc1ccc(Cl)cc1)C(=O)O
B3: Apelin polypeptide SEQ ID NO: 551 (peptide)
peptide: Tridecanoyl-[γGlu][AEEA][AEEA][dQ]RP[NMeR][Cha]SHKG[αMeP][Nle][Phe(4-Cl)]-OH
SMILES: CCCCCCCCCCCCC(=O)N[C@@H](CCC(=O)NCCOCCOCC(=O)NCCOCCOCC(=O)N[C@H](CCC(N)=O)C(=O)N[C@@H](CCCNC(=N)N)C(=O)N1CCC[C@H]1C(=O)N(C)[C@@H](CCCNC(=N)N)C(=O)N[C@@H](CC1CCCCC1)C(=O)N[C@@H](CO)C(=O)N[C@@H](Cc1c[nH]cn1)C(=O)N[C@@H](CCCCN)C(=O)NCC(=O)N1CCC[C@@]1(C)C(=O)N[C@@H](CCCC)C(=O)N[C@@H](Cc1ccc(Cl)cc1)C(=O)O)C(=O)O
B4: Apelin polypeptide SEQ ID NO: 498 (peptide)
peptide: Tridecanoyl-[γGlu][AEEA][AEEA][dQ]RP[NMeR][Cha]SHKG[αMeP][Nle][Aib][Phe(4-Cl)]-OH
SMILES: CCCCCCCCCCCCC(=O)N[C@@H](CCC(=O)NCCOCCOCC(=O)NCCOCCOCC(=O)N[C@H](CCC(N)=O)C(=O)N[C@@H](CCCNC(=N)N)C(=O)N1CCC[C@H]1C(=O)N(C)[C@@H](CCCNC(=N)N)C(=O)N[C@@H](CC1CCCCC1)C(=O)N[C@@H](CO)C(=O)N[C@@H](Cc1c[nH]cn1)C(=O)N[C@@H](CCCCN)C(=O)NCC(=O)N1CCC[C@@]1(C)C(=O)N[C@@H](CCCC)C(=O)NC(C)(C)C(=O)N[C@@H](Cc1ccc(Cl)cc1)C(=O)O)C(=O)O
B5: Apelin polypeptide SEQ ID NO: 379 (peptide)
peptide: Tridecanoyl-[γGlu][AEEA][AEEA]QRP[NMeR][Cha]SHKG[Oic][Nle]P[β3hF]-OH
SMILES: CCCCCCCCCCCCC(=O)N[C@@H](CCC(=O)NCCOCCOCC(=O)NCCOCCOCC(=O)N[C@@H](CCC(N)=O)C(=O)N[C@@H](CCCNC(=N)N)C(=O)N1CCC[C@H]1C(=O)N(C)[C@@H](CCCNC(=N)N)C(=O)N[C@@H](CC1CCCCC1)C(=O)N[C@@H](CO)C(=O)N[C@@H](Cc1c[nH]cn1)C(=O)N[C@@H](CCCCN)C(=O)NCC(=O)N1[C@H](C(=O)N[C@@H](CCCC)C(=O)N2CCC[C@H]2C(=O)N[C@H](CC(=O)O)Cc2ccccc2)C[C@@H]2CCCC[C@@H]21)C(=O)O
B6: Apelin polypeptide SEQ ID NO: 417 (peptide)
peptide: Tridecanoyl-[AC4Abu][AEEA][AEEA]QRP[NMeR][Cha]SHKG[β3hP][Nle]P[Phe(4-Cl)]-OH
SMILES: CCCCCCCCCCCCC(=O)NCCC(C(=O)O)C(=O)NCCOCCOCC(=O)NCCOCCOCC(=O)N[C@@H](CCC(N)=O)C(=O)N[C@@H](CCCNC(=N)N)C(=O)N1CCC[C@H]1C(=O)N(C)[C@@H](CCCNC(=N)N)C(=O)N[C@@H](CC1CCCCC1)C(=O)N[C@@H](CO)C(=O)N[C@@H](Cc1c[nH]cn1)C(=O)N[C@@H](CCCCN)C(=O)NCC(=O)N1CCC[C@H]1CC(=O)N[C@@H](CCCC)C(=O)N1CCC[C@H]1C(=O)N[C@@H](Cc1ccc(Cl)cc1)C(=O)O
B7: Apelin polypeptide SEQ ID NO: 377 (peptide)
peptide: Tridecanoyl-[γGlu][AEEA][AEEA][dQ]RP[NMeR][Cha]SHKG[Oic][Nle]P[Phe(4-Cl)]-OH
SMILES: CCCCCCCCCCCCC(=O)N[C@@H](CCC(=O)NCCOCCOCC(=O)NCCOCCOCC(=O)N[C@H](CCC(N)=O)C(=O)N[C@@H](CCCNC(=N)N)C(=O)N1CCC[C@H]1C(=O)N(C)[C@@H](CCCNC(=N)N)C(=O)N[C@@H](CC1CCCCC1)C(=O)N[C@@H](CO)C(=O)N[C@@H](Cc1c[nH]cn1)C(=O)N[C@@H](CCCCN)C(=O)NCC(=O)N1[C@H](C(=O)N[C@@H](CCCC)C(=O)N2CCC[C@H]2C(=O)N[C@@H](Cc2ccc(Cl)cc2)C(=O)O)C[C@@H]2CCCC[C@@H]21)C(=O)O
B8: SEQ ID NO: 81 (peptide)
peptide: Ac-[hArg][dR]Q[hArg]P[dR][NMeL]EHKG[Oic][Phe(4-I)]P[dBip]-OH
SMILES: CC(=O)N[C@@H](CCCCNC(=N)N)C(=O)N[C@H](CCCNC(=N)N)C(=O)N[C@@H](CCC(N)=O)C(=O)N[C@@H](CCCCNC(=N)N)C(=O)N1CCC[C@H]1C(=O)N[C@H](CCCNC(=N)N)C(=O)N(C)[C@@H](CC(C)C)C(=O)N[C@@H](CCC(=O)O)C(=O)N[C@@H](Cc1c[nH]cn1)C(=O)N[C@@H](CCCCN)C(=O)NCC(=O)N1[C@H](C(=O)N[C@@H](Cc2ccc(I)cc2)C(=O)N2CCC[C@H]2C(=O)N[C@H](Cc2ccc(-c3ccccc3)cc2)C(=O)O)C[C@@H]2CCCC[C@@H]21
B9: SEQ ID NO: 79 (peptide)
peptide: Ac-[hArg][dR]Q[hArg]PE[NMeL]SHKG[Oic][Phe(4-I)]P[dBip]-OH
SMILES: CC(=O)N[C@@H](CCCCNC(=N)N)C(=O)N[C@H](CCCNC(=N)N)C(=O)N[C@@H](CCC(N)=O)C(=O)N[C@@H](CCCCNC(=N)N)C(=O)N1CCC[C@H]1C(=O)N[C@@H](CCC(=O)O)C(=O)N(C)[C@@H](CC(C)C)C(=O)N[C@@H](CO)C(=O)N[C@@H](Cc1c[nH]cn1)C(=O)N[C@@H](CCCCN)C(=O)NCC(=O)N1[C@H](C(=O)N[C@@H](Cc2ccc(I)cc2)C(=O)N2CCC[C@H]2C(=O)N[C@H](Cc2ccc(-c3ccccc3)cc2)C(=O)O)C[C@@H]2CCCC[C@@H]21

target: T1, rat APJ receptor (rat, UniProt Q9JHG3 1-377); assay: cell-based or functional assay
T1 sequence (looked up): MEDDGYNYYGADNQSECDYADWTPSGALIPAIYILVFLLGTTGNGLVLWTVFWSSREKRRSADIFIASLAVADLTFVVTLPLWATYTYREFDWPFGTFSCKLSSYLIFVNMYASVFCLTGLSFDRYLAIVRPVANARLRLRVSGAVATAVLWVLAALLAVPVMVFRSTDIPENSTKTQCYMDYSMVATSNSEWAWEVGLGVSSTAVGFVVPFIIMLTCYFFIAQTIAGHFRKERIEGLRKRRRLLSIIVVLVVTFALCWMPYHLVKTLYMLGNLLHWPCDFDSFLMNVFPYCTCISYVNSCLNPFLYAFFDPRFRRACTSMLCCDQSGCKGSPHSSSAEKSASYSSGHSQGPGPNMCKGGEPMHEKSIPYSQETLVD

Binder | EC50 Rat APJ Receptor (GTPγS assay)
B1 | 3700 pM
B2 | 4010 pM
B3 | 1150 pM
B4 | 138 pM
B5 | 8380 pM
B6 | 8100 pM
B7 | 447 pM

target: T2, human APJ receptor (human, UniProt P35414 1-380); assay: cell-based or functional assay
T2 sequence (looked up): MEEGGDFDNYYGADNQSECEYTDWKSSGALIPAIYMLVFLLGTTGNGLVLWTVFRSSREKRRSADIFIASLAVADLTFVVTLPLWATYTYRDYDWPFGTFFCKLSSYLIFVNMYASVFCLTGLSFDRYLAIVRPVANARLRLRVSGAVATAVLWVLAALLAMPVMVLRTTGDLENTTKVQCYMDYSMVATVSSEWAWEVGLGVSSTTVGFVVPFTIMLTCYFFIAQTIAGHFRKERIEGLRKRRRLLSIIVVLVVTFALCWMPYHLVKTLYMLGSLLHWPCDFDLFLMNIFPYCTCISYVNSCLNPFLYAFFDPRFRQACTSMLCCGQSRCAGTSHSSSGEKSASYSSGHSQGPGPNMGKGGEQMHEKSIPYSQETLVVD

Binder | EC50 Human APJ Receptor
Palmitoyl-[AC4Abu″][AEEA][AEEA][dQ]RP[NMeR][Cha]SHKG[Oic][Nle]P[AMEF]-OH (reading uncertain) [SEQ ID NO: 606] | 307 pM
XXXQRPRLSHKGPXPF ({hexanoyl}[AC4Abu][Aeea][Aeea]QRP[NMeArg]LSHKGP[Nle]P[4-Cl-F]{COOH}) [SEQ ID NO: 492] | 37.5 pM
B8 | 83800 pM
Ac-[hArg]EQ[hArg]P[dR][NMeL]SHKG[Oic][Phe(4-I)]P[dBip]-OH [SEQ ID NO: 76] | 1840 pM
XXXQRPRLSHKGPXPF ({Acetyl-NH}[AC4Abu][Aeea][Aeea]QRP[NMeArg]LSHKGP[Nle]P[4-Cl-F]{COOH}) [SEQ ID NO: 88] | 220 pM
Ac-[hArg]Q[hArg]P[NMeR][Cha]SHKG[Oic][Nle]P[Phe(4-Cl)]-OH [SEQ ID NO: 60] | 224 pM
B9 | 678 pM
XXXQRPRLSHKGPXPF ({Decanoyl}[AC4Abu][Aeea][Aeea]QRP[NMeArg]LSHKGP[Nle]P[4-Cl-F]{COOH}) [SEQ ID NO: 494] | 22.1 pM
Palmitoyl-[AC4Abu″][AEEA][AEEA][dQ]RP[NMeR][Cha][αMeS]HKG[Oic][Nle][β3hP][d(β3hF)]-OH (reading uncertain) [SEQ ID NO: 642] | 332 pM

target: T3, human APJ receptor (human, UniProt P35414 1-380); assay: cell-based or functional assay
T3 sequence (looked up): T2 sequence (looked up)

Binder | EC50 Human APJ Receptor (GTPγS assay)
B1 | 1300 pM
B2 | 3920 pM
B3 | 234 pM
B4 | 29.9 pM
B5 | 7520 pM
B6 | 5990 pM
B7 | 388 pM

target: T4, rat APJ receptor (rat, UniProt Q9JHG3 1-377); assay: cell-based or functional assay
T4 sequence (looked up): T1 sequence (looked up)

Binder | EC50 Rat APJ Receptor
B8 | 70600 pM
Ac-[hArg]EQ[hArg]P[dR][NMeL]SHKG[Oic][Phe(4-I)]P[dBip]-OH [SEQ ID NO: 76] | 994 pM
XXXQRPRLSHKGPXPF ({Acetyl-NH}[AC4Abu][Aeea][Aeea]QRP[NMeArg]LSHKGP[Nle]P[4-Cl-F]{COOH}) [SEQ ID NO: 88] | 388 pM
Ac-[hArg]Q[hArg]P[NMeR][Cha]SHKG[Oic][Nle]P[Phe(4-Cl)]-OH [SEQ ID NO: 60] | 4480 pM
B9 | 341 pM
